Data on two substances can be found in patent US20080219999A1.

The target in the experiment is Rhinovirus serotype HRV-39 (human rhinovirus 39). Kind of experiment: cell-based or functional assay.

“IC1-5D/IgA (ICAM/IgA fusion, gift of Dr. Tim Springer; Martin, et al., 1993) (from UniProt P05362 28-480; P01876 103-353) (Fc fusion)” had an IC50, cytopathic effect (CPE) assay on HeLa S3 cells of 0.12 µg/mL and a fold lower IC50 than soluble ICAM-1, CPE assay on HeLa S3 cells of 11.3 fold. With “soluble human ICAM-1 (from UniProt P05362 28-480)”, the IC50, cytopathic effect (CPE) assay on HeLa S3 cells came out at 1.35 µg/mL.
